The target in assay [1] is T1, human CD11a (human, UniProt P20701 26-1170).
T1 construct: whole, on cells; On cells it stands paired with CD18 as LFA-1; also called alpha subunit of LFA-1; LFA-1 (CD11a/CD18)
Put plainly: FACScan, Jurkat cells.
Target sequence in this assay (P20701 26-1170): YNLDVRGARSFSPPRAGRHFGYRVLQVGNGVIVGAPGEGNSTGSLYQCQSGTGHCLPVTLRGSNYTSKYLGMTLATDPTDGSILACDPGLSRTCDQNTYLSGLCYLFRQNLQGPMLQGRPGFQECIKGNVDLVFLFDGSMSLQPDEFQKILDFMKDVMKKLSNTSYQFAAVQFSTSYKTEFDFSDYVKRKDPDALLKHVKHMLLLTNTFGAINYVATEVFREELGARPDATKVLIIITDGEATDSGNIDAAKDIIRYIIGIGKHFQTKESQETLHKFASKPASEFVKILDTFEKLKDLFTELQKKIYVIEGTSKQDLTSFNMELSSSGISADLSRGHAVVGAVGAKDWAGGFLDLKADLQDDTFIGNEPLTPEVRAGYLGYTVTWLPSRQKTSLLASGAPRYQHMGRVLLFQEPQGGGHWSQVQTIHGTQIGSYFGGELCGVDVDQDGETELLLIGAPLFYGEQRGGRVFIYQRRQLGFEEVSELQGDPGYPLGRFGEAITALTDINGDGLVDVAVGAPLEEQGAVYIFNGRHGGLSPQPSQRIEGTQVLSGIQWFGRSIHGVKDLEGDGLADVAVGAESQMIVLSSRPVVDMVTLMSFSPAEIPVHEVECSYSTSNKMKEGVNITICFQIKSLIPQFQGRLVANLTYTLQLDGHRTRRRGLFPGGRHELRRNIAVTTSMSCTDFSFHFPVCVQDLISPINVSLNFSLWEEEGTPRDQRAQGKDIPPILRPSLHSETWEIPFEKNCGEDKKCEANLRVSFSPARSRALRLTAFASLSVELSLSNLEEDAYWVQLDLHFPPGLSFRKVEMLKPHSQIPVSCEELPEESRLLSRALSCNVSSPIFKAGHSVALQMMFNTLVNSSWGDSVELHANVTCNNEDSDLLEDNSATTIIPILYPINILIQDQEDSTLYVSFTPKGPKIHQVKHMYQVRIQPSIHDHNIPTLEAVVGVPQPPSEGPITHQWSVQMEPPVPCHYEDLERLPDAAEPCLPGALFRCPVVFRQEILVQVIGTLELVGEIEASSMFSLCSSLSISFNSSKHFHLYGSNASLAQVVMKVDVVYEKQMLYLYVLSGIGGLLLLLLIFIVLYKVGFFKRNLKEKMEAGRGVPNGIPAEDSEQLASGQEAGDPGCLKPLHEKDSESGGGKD

Assay [2] has as its target T1, human CD11a. Description: FACScan, Jurkat cells. The source holds these as a separate data set.
For assay [3], the target named is T1, human CD11a. Description: FACScan, Jurkat cells. The source holds these as a separate data set.
Assay [4] concerns the target T1, human CD11a. Put plainly: cell-based or functional assay.
Assay [5] deals with T1, human CD11a. Description: cell-based or functional assay. This is another data set of the same source.
Assay [6] concerns the target T2, rhesus CD11a (rhesus, UniProt H9Z8N3 26-1169).
T2 construct: whole, on cells; also called rhCD11a
T2 sequence: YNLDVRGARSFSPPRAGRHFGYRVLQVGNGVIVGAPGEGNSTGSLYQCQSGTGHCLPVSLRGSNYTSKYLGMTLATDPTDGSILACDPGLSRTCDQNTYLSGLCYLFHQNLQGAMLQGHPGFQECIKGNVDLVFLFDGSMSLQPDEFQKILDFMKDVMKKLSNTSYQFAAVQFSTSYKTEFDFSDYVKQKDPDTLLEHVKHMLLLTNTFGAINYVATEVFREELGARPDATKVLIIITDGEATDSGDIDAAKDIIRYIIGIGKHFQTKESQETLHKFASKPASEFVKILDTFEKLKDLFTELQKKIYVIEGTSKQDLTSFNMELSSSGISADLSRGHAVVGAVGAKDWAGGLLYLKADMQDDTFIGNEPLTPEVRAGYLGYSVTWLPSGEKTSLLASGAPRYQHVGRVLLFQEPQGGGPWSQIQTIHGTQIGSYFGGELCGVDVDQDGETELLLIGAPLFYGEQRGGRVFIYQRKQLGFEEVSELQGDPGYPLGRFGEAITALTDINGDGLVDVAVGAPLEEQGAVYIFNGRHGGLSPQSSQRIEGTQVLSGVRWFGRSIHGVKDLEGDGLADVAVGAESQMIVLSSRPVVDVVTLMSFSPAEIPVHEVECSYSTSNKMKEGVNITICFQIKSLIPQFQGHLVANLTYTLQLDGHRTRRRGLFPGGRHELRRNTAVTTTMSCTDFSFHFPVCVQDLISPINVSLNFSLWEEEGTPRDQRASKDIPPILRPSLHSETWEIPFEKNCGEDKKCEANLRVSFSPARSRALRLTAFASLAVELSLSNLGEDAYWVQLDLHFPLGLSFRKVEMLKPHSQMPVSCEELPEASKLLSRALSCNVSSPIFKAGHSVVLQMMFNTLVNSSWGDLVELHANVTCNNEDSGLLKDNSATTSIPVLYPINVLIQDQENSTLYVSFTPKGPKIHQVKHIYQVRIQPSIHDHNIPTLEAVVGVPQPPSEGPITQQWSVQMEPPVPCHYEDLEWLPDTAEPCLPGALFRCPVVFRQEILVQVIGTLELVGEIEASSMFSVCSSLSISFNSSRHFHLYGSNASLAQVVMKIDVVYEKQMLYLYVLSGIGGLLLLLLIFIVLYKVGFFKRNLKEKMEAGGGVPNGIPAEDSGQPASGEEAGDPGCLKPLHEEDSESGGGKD
Description: cell binding EC50, rhesus against human CD11a.

Assay [7] concerns the target T2, rhesus CD11a. Description: binding to rhesus peripheral blood lymphocytes.
In assay [8] the target is T2, rhesus CD11a. Description: binding to rhesus peripheral blood lymphocytes. This is another data set of the same source.
Assay [9] deals with T1, human CD11a. Description: saturation binding, human lymphocytes, donor 1, Kd(app).
Assay [10] addresses T1, human CD11a. Put plainly: saturation binding, human lymphocytes, donor 2, Kd(app).
Assay [11] deals with T1, human CD11a. Put plainly: saturation binding of 125I-antibody to human mononuclear cells, Kd(app).

B1: humanized MHM24 IgG1 (HuIgG1) (antibody, V domains shown)
VH: EVQLVESGGGLVQPGGSLRLSCAASGYSFTGHWMNWVRQAPGKGLEWVGMIHPSDSETRYNQKFKDRFTISVDKSKNTLYLQMNSLRAEDTAVYYCARGIYFYGTTYFDYWGQGTLVTVSS
VL: DIQMTQSPSSLSASVGDRVTITCRASKTISKYLAWYQQKPGKAPKLLIYSGSTLQSGVPSRFSGSGSGTDFTLTISSLQPEDFATYYCQQHNEYPLTFGQGTKVEIKR
notes: F(ab)-8 VL and VH fused to human constant light and IgG1 heavy chains; also called HulgG1; huMHM24
One may read the EC50 as the concentration that produces a half-maximal response. With B1, the “EC50 F(ab)/EC50 F(ab)-2” value with human CD11a [1] amounted to 0.004 ratio. The concentration giving a half-maximal response (EC50) with human CD11a [2] stood at 0.042 nM; with rhesus CD11a [7], 45.6 nM. Besides, the “Var.EC50/HuIgG1 EC50” value with human CD11a [3] and with rhesus CD11a [8] was 1 ratio throughout. Besides, in the assay with human CD11a [4], the “IC50, blocking of cell adhesion, Jurkat:HuK” value is 0.13 nM. The “IC50, human mixed lymphocyte response assay” value with human CD11a [5] was found to be 0.38 nM. The “fold reduction in binding against human CD11a” value with rhesus CD11a [6] was around 1000 fold. In addition, the Kd was determined as 0.11 nM with human CD11a [9], 0.18 nM in the assay with human CD11a [10] and 0.15 nM with human CD11a [11].

These data come from EP1516629B1 (Genentech, Inc., dated 2013).
